Molecular target: T1, GFP-fused TcsH CROPs (residues 1832–2618), His-tagged (Paeniclostridium sordellii, UniProt M9ZTT7 1832-2618)
T1 construct: source: Escherichia coli (pET28a vector), purified as His-tagged protein
T1 sequence: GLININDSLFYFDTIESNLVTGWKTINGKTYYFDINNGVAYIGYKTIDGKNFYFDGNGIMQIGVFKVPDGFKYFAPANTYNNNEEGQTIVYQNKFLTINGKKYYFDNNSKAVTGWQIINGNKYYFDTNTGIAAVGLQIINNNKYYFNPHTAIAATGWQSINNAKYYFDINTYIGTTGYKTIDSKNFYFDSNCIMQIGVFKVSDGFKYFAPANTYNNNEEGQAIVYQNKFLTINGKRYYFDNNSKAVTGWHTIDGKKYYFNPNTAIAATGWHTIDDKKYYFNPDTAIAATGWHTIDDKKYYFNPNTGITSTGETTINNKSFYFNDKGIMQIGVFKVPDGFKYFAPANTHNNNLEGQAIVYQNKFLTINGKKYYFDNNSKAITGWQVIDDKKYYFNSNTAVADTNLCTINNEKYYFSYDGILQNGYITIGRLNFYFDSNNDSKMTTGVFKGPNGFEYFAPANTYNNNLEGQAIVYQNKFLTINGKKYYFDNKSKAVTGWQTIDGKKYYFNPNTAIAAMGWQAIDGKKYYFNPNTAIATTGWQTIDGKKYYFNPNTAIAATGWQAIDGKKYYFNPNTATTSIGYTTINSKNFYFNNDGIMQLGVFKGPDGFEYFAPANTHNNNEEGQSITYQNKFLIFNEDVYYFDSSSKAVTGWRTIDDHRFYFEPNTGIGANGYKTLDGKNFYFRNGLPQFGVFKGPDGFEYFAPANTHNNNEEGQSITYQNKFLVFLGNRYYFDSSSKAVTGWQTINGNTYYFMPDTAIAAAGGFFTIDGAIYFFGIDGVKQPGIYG
Assay: BLI
Conditions: both partners purified

B1: Fc-tagged TMPRSS2^106-492/[change] (ectodomain of human TMPRSS2 with [change]) (Fc fusion)
chain: WKFMGSKCSNSGIECDSSGTCINPSNWCDGVSHCPGGEDENRCVRLYGPNFILQVYSSQRKSWHPVCQDDWNENYGRAACRDMGYKNNFYSSQGIVDDSGSTSFMKLNTSAGNVDIYKKLYHSDACSSKAVVSLRCIACGVNLNSSRQSQIVGGESALPGAWPWQVSLHVQNVHVCGGSIITPEWIVTAAHCVEKPLNNPWHWTAFAGILRQSFMFYGAGYQVEKVISHPNYDSKTKNNDIALMKLQKPLTFNDLVKPVCLPNPGMMLQPEQLCWISGWGATEEKGKTSEVLNAAKVLLIETQRCNSRYVYDNLITPAMICAGFLQGNVDSCQGDSGGPLVTSKNNIWWLIGDTSWGSGCAKAYRPGVYGNVMVFTDWIYRQMRADG
- Kd: ~5.23 nM

— publication PMC9321280 (Nature Communications, 2022)
